Test results published in the supplement of paper PMC10567573.

B1: PDLIM4 (parent)
chain: FLDERLYCESHAKARVKPPEGYDV
B2: TCAP (parent)
chain: YQRVLPLPIFTPAKMGATKEERED

Variants of: B1
Experiment: protein stability index of a GFP-peptide fusion (GPS, HEK-293T) (PSI 1-6); higher = more stable
Conditions: c terminus: a fixed tail appended
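Further: lentivirally expressed fusions sorted by FACS into six bins by GFP to DsRed ratio, PSI derived from sequencing read proportions per bin multiplied by bin number.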

Compared with A12S, Y22A is lower in protein stability index: 1.42 for the first, 1.32 for the second.

Compared with R5M, H11V is lower in protein stability index: 2.33 for the first, 1.72 for the second.

First: A12Y
Second: H11T
The protein stability index of the first is lower: 1.77 for the first, 1.99 for the second.

Compared with L6P, C8W is higher in protein stability index: 1.7 for the first, 2.14 for the second.

Compared with V16I, S10L is higher in protein stability index: 1.62 for the first, 2.69 for the second.

First: V16W
Second: S10D
The protein stability index of the first is higher: 2.7 for the first, 2.01 for the second.

First: D3P
Second: E20H
The protein stability index of the first is lower: 2.64 for the first, 2.82 for the second.

First: H11N
Second: P18H
The protein stability index of the first is higher: 1.86 for the first, 1.69 for the second.

Going from E20N to A14E, the protein stability index falls from 2.28 to 1.31.

Going from A12N to R15V, the protein stability index rises from 1.42 to 1.77.

First: C8K
Second: H11D
The protein stability index of the first is lower: 1.58 for the first, 2.39 for the second.

Going from F1Y to A12G, the protein stability index rises from 1.3 to 2.68.

Compared with K13P, D23N is higher in protein stability index: 2.24 for the first, 2.3 for the second.

Variants of: B2
Experiment: as above
Conditions: c terminus: a fixed tail appended

First: Y1A
Second: Y1C
The protein stability index of the first is higher: 5.43 for the first, 4.53 for the second.

Going from Y1D to Y1E, the protein stability index falls from 5.35 to 5.33.

Going from Y1F to Y1G, the protein stability index rises from 2.09 to 4.97.

Going from Y1H to Y1I, the protein stability index falls from 4.68 to 3.9.

Compared with Y1K, Y1L is lower in protein stability index: 5.06 for the first, 4.21 for the second.

Compared with Y1M, Y1N is higher in protein stability index: 4.64 for the first, 5.03 for the second.

First: Y1P
Second: Y1Q
The protein stability index of the first is higher: 5.44 for the first, 5.25 for the second.

Going from Y1R to Y1S, the protein stability index rises from 4.53 to 5.4.

Compared with Y1T, Y1V is lower in protein stability index: 4.79 for the first, 4.33 for the second.

First: Y1W
Second: Q2A
The protein stability index of the first is higher: 2.93 for the first, 1.92 for the second.

Going from Q2C to Q2D, the protein stability index rises from 1.99 to 3.35.

First: Q2E
Second: Q2F
The protein stability index of the first is higher: 3.53 for the first, 3.21 for the second.

Going from Q2G to Q2H, the protein stability index rises from 1.41 to 2.07.

Going from Q2I to Q2K, the protein stability index rises from 2.08 to 4.35.

First: Q2L
Second: Q2M
The protein stability index of the first is higher: 2.58 for the first, 2.54 for the second.

Compared with Q2N, Q2P is lower in protein stability index: 2.35 for the first, 1.55 for the second.

First: Q2R
Second: Q2S
The protein stability index of the first is higher: 3.9 for the first, 1.87 for the second.

First: Q2T
Second: Q2V
The protein stability index of the first is lower: 1.89 for the first, 1.99 for the second.

First: Q2W
Second: Q2Y
The protein stability index of the first is lower: 2.59 for the first, 2.93 for the second.

Compared with R3A, R3C is higher in protein stability index: 2.15 for the first, 3.12 for the second.

R3D and R3E are the same in protein stability index: 2.03 for the first, 2.03 for the second.

Compared with R3F, R3G is higher in protein stability index: 2.63 for the first, 3 for the second.

Compared with R3H, R3I is lower in protein stability index: 1.88 for the first, 1.73 for the second.

Compared with R3K, R3L is lower in protein stability index: 2.5 for the first, 1.86 for the second.

Going from R3M to R3N, the protein stability index falls from 3.43 to 2.46.

Compared with R3P, R3Q is higher in protein stability index: 1.55 for the first, 2.78 for the second.

Compared with R3S, R3T is lower in protein stability index: 2.3 for the first, 2.05 for the second.

Going from R3V to R3W, the protein stability index rises from 2.09 to 2.69.

For R3Y, the protein stability index was 4.55.
